# Laboratory results published in paper doi:10.1101/2025.03.03.641048 (2025).
# B1: mouse ZP2 N-terminal ZP-N1 domain (mZP2-N1), His-tagged (domain or fragment)
# chain: VSLPQSENPAFPGTLICDKDEVRIEFSSRFDMEKWNPSVVDTLGSEILNCTYALDLERFVLKFPYETCTIKVVGGYQVNIRVGDTTTDVRYKDDMYHFFCPAIQ
# B2: mZP2 T103-Q138 linear epitope fused to maltose-binding protein (domain or fragment)
# chain: TIKVVGGYQVNIRVGDTTTDVRYKDDMYHFFCPAIQ
# B3: rZP2-N1 S113R (domain or fragment)
# chain: SLPQSENPAFPGTLICDKDEVRVEFSSRFDMEKWNPSLVDTFGNEISSCTYALDLEKFILKFPYETCTIKVIGGYQVNIRVQDTNADVRYKDDVHHFFCPAIQ
# Molecular target: IE-3 fragment antigen-binding (Fab) region, recombinant, labelled (labeled with the Blue-NHS labeling kit (chain not told) | labeled with the Blue-NHS labeling kit (chain not told))
# Experiment: MST
row,Kd [nM],Binder
1,0.3,B1
2,8.9,B2
3,16.3,B3
